Laboratory results published in patent US20090035321A1, “Intercellular adhesion molecules and their binding ligands” (Boehringer Ingelheim Pharmaceuticals, Inc., published 2009).

How the values were obtained:
Test in all cases: 35S-HRV14 on COS cells
ICAM-1 V4/G = ICAM-1 V4/G (human, UniProt P05362)
Method: (§1) COS cells were seeded into 10 cm tissue culture plates such that they would be 50% confluent by 16-24 hrs. COS cells were then washed once with TBS and incubated for 4 hrs with 4 ml RPMI containing 10% Nu sera (Collaborative) 5 pg/ml chloroquine, 3 μg of mutant plasmid and 200 μg/ml DEAE-dextran sulfate. Cells were then washed with 10% DMSO/PBS followed by PBS and cultured 16 hrs in culture media. Culture media was replaced with fresh media and at 48 hrs post transfection (OS cells were suspended by trypsin/EDTA (Gibco) treatment and divided into 2, 10 cm plates as well as 24 well tissue culture plates for HRV binding. At 72 hrs cells were harvested from 10 cm plates with 5 mM EDTA/HBSS and processed for adhesion to LFA-1 coated plastic and immunofluorescence.
(§2) Binding occurred in 1 hr at 35° C. in a 5% CO₂ atmosphere with horizontal rotation (100 rpm). Unbound [³⁵S] HRV14 was aspirated, COS cells were gently washed with 150 ml of HRV buffer and then solubilized with 1% SDS in PBS for scintillation counting.
(§3) In Table 25, the notation for the mutations uses the one-letter code for the wild-type sequence followed by a slash and the one-letter code for the corresponding mutant sequence. The position of the first amino acid within the sequence is indicated. Wild type residues precede the slash followed by the residues they were substituted for in the mutant. COS cells expressing ICAM-1 mutants were tested for adherence to LFA-1 coated plastic and for binding 35S met-labeled HRV14. […] Binding is presented as mean and standard error (SE) for multiple experiments (n). […] The specific linear fluorescence intensity (SLFI) of CL203 for each mutant is normalized to that of wild type CL203 SLFI (% WT) as discussed above. The SLFI of RR1/1, R6.5 and LB-2 SLFI is normalized to the CL203 SLFI of the mutant (% CL203) as described above.

ICAM-1 R13G/EA = ICAM-1 R13G/EA (human, UniProt P05362)
Method: as §1, §2, §3

ICAM-1 N56V/HM = ICAM-1 N56V/HM (human, UniProt P05362)
Method: as §1, §2, §3

ICAM-1 Q73/T = ICAM-1 Q73/T (human, UniProt P05362)
Method: as §1, §2, §3

ICAM-1 R13/E = ICAM-1 R13/E (human, UniProt P05362)
Method: as §1, §2, §3

ICAM-1 D60/N = ICAM-1 D60/N (human, UniProt P05362)
Method: as §1, §2, §3

ICAM-1 E34/A = ICAM-1 E34/A (human, UniProt P05362)
Method: as §1, §2, §3

ICAM-1 K128/R = ICAM-1 K128/R (human, UniProt P05362)
Method: as §1, §2, §3

ICAM-1 N175TSA/QTLG = ICAM-1 N175TSA/QTLG (human, UniProt P05362)
Method: as §1, §2, §3

ICAM-1 R149RD/EEG = ICAM-1 R149RD/EEG (human, UniProt P05362)
Method: as §1, §2, §3

ICAM-1 N103/K = ICAM-1 N103/K (human, UniProt P05362)
Method: as §1, §2, §3

ICAM-1 R13/K = ICAM-1 R13/K (human, UniProt P05362)
Method: as §1, §2, §3

ICAM-1 S3VS/AGL = ICAM-1 S3VS/AGL (human, UniProt P05362)
Method: as §1, §2, §3

ICAM-1 D60S/KL = ICAM-1 D60S/KL (human, UniProt P05362)
Method: as §1, §2, §3

ICAM-1 D213GL/HGV = ICAM-1 D213GL/HGV (human, UniProt P05362)
Method: as §1, §2, §3

ICAM-1 Q58EDS/AKDI = ICAM-1 Q58EDS/AKDI (human, UniProt P05362)
Method: as §1, §2, §3

ICAM-1 E59/Q = ICAM-1 E59/Q (human, UniProt P05362)
Method: as §1, §2, §3

ICAM-1 A178/G = ICAM-1 A178/G (human, UniProt P05362)
Method: as §1, §2, §3

ICAM-1 E111GGA/KAGS = ICAM-1 E111GGA/KAGS (human, UniProt P05362)
Method: as §1, §2, §3

ICAM-1 D60/Q = ICAM-1 D60/Q (human, UniProt P05362)
Method: as §1, §2, §3

ICAM-1 K40/A = ICAM-1 K40/A (human, UniProt P05362)
Method: as §1, §2, §3

ICAM-1 Y83/S = ICAM-1 Y83/S (human, UniProt P05362)
Method: as §1, §2, §3

ICAM-1 N48/H = ICAM-1 N48/H (human, UniProt P05362)
Method: as §1, §2, §3

ICAM-1 D60/K = ICAM-1 D60/K (human, UniProt P05362)
Method: as §1, §2, §3

ICAM-1 K50V/EL = ICAM-1 K50V/EL (human, UniProt P05362)
Method: as §1, §2, §3

ICAM-1 D26QPK/ALPE = ICAM-1 D26QPK/ALPE (human, UniProt P05362)
Method: as §1, §2, §3

ICAM-1 K8/E = ICAM-1 K8/E (human, UniProt P05362)
Method: as §1, §2, §3

ICAM-1 T20CS/ACT = ICAM-1 T20CS/ACT (human, UniProt P05362)
Method: as §1, §2, §3

ICAM-1 E254DE/KEK = ICAM-1 E254DE/KEK (human, UniProt P05362)
Method: as §1, §2, §3

B1: human rhinovirus 14 (HRV14) (other)
chain: GAQVSTQKSGSHENQNILTNGSNQTFTVINYYKDAASTSSAGQSLSMDPSKFTEPVKDLMLKGAPALNSPNVEACGYSDRVQQITLGNSTITTQEAANAVVCYAEWPEYLPDVDASDVNKTSKPDTSVCRFYTLDSKTWTTGSKGWCWKLPDALKDMGVFGQNMFFHSLGRSGYTVHVQCNATKFHSGCLLVVVIPEHQLASHEGGNVSVKYTFTHPGERGIDLSSANEVGGPVKDVIYNMNGTLLGNLLIFPHQFINLRTNNTATIVIPYINSVPIDSMTRHNNVSLMVIPIAPLTVPTGATPSLPITVTIAPMCTEFSGIRSKSIVPQGLPTTTLPGSGQFLTTDDRQSPSALPNYEPTPRIHIPGKVHNLLEIIQVDTLIPMNNTHTKDEVNSYLIPLNANRQNEQVFGTNLFIGDGVFKTTLLGEIVQYYTHWSGSLRFSLMYTGPALSSAKLILAYTPPGARGPQDRREAMLGTHVVWDIGLQSTIVMTIPWTSGVQFRYTDPDTYTSAGFLSCWYQTSLILPPETTGQVYLLSFISACPDFKLRLMKDTQTISQTVALTEGLGDELEEVIVEKTKQTVASISSGPKHTQKVPILTANETGATMPVLPSDSIETRTTYMHFNGSETDVECFLGRAACVHVTEIQNKDATGIDNHREAKLFNDWKINLSSLVQLRKKLELFTYVRFDSEYTILATASQPDSANYSSNLVVQAMYVPPGAPNPKEWDDYTWQSASNPSVFFKVGDTSRFSVPYVGLASAYNCFYDGYSHDDAETQYGITVLNHMGSMAFRIVNEHDEHKTLVKIRVYHRAKHVEAWIPRAPRALPYTSIGRTNYPKNTEPVIKKRKGDIKSY
modifications: [35S]-Met labeled
HRV Binding % (ICAM-1 V4/G): 30 % of wild type | HRV Binding % (ICAM-1 R13G/EA): 3 % of wild type | HRV Binding % (ICAM-1 N56V/HM): 101 % of wild type | HRV Binding % (ICAM-1 Q73/T): 133 % of wild type | HRV Binding % (ICAM-1 R13/E): 10 % of wild type | HRV Binding % (ICAM-1 D60/N): 89 % of wild type | HRV Binding % (ICAM-1 E34/A): 66 % of wild type | HRV Binding % (ICAM-1 K128/R): 137 % of wild type | HRV Binding % (ICAM-1 N175TSA/QTLG): 40 % of wild type | HRV Binding % (ICAM-1 R149RD/EEG): 139 % of wild type | HRV Binding % (ICAM-1 N103/K): 13 % of wild type | HRV Binding % (ICAM-1 R13/K): 123 % of wild type | HRV Binding % (ICAM-1 S3VS/AGL): 61 % of wild type | HRV Binding % (ICAM-1 D60S/KL): 1 % of wild type | HRV Binding % (ICAM-1 D213GL/HGV): 99 % of wild type | HRV Binding % (ICAM-1 Q58EDS/AKDI): 0 % of wild type | HRV Binding % (ICAM-1 E59/Q): 92 % of wild type | HRV Binding % (ICAM-1 A178/G): 102 % of wild type | HRV Binding % (ICAM-1 E111GGA/KAGS): 162 % of wild type | HRV Binding % (ICAM-1 D60/Q): 20 % of wild type | HRV Binding % (ICAM-1 K40/A): 89 % of wild type | HRV Binding % (ICAM-1 Y83/S): 86 % of wild type | HRV Binding % (ICAM-1 N48/H): 81 % of wild type | HRV Binding % (ICAM-1 D60/K): 4 % of wild type | HRV Binding % (ICAM-1 K50V/EL): 10 % of wild type | HRV Binding % (ICAM-1 D26QPK/ALPE): 13 % of wild type | HRV Binding % (ICAM-1 K8/E): 132 % of wild type | HRV Binding % (ICAM-1 T20CS/ACT): 130 % of wild type | HRV Binding % (ICAM-1 E254DE/KEK): 99 % of wild type
